Test results published in patent US6790444.

Columns and labels:
human lymphotoxin (TNFβ) = molecular target: T1, human lymphotoxin (TNFβ) (human, UniProt P01374 35-205, limits assumed); experiment: cell-based or functional assay
T1 sequence (looked up): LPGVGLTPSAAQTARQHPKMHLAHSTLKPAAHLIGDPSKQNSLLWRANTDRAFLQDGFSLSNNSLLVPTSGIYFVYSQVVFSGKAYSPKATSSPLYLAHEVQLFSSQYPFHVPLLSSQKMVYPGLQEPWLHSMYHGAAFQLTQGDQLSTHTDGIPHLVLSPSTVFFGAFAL

[1] = molecular target: human tumor necrosis factor-α (TNFα) (human) (UniProt P01375); experiment: cell-based or functional assay
human tumor necrosis factor-α (TNFα) (human), sequence (P01375 77-233): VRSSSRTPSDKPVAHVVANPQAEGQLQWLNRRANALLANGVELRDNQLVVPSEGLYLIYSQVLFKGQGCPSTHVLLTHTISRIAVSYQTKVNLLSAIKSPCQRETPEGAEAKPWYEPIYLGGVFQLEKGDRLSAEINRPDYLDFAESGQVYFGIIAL

In the case of “p55-sf2 (p55 TNF receptor / IgG1 heavy chain single fusion with truncated light chain JCK) (from UniProt P19438 32-188) (Fc fusion)”, the amount needed for the same degree of inhibition of TNFβ cytotoxicity, against p75P-sf2 (human lymphotoxin (TNFβ)) is reported as 3 fold.

B1: p75-sf2 (complete p75 extracellular domain fused to the IgG1 heavy chain) (Fc fusion)
chain: QLPAQVAFTPYAPEPGSTCRLREYYDQTAQMCCSKCSPGQHAKVFCTKTSDTVCDSCEDSTYTQLWNWVPECLSCGSRCSSDQVETQACTREQNRICTCRPGWYCALSKQEGCRLCAPLRKCRPGFGVARPGTETSDVVCKPCAPGTFSNTTSSTDICRPHQICNVVAIPGNASMDAVCTSTSPTRSMAPGAVHLPQPVSTRSQHTQPTPEPSTAPSTSFLLPMGPSPPAEGSTGDGTLVTVSS
With B1 the “amount needed for the same degree of inhibition of TNFβ cytotoxicity, against p75P-sf2” value (human lymphotoxin (TNFβ)) was 3 fold.

B2: chimeric mouse/human IgG1 anti-platelet mAb (7E3) (antibody, INN chains, looked up, V domains shown)
VH: EVQLQQSGTVLARPGASVKMSCEASGYTFTNYWMHWVKQRPGQGLEWIGAIYPGNSDTSYIQKFKGKAKLTAVTSTTSVYMELSSLTNEDSAVYYCTLYDGYYVFAYWGQGTLVTVSA
VL: EIVLTQSPVTLSVTPGDSVSLSCRASRDISNNLHWFQQTSHESPRLLIKYASQSMSGIPSRFSGSGSGTDFTLSINSVETEDFGMYFCQQTNSWPYTFGGGTKLEIK
modifications: chimeric IgG1
Work on B2 yielded an IL-6 secreted by FS-4 fibroblasts; 0.3 ng/ml rhTNF, 4 µg/ml antibody [1] of 1.6 ng/mL, an IL-6 secreted by FS-4 fibroblasts; 1.5 ng/ml rhTNF, 4 µg/ml antibody [1] of 1.96 ng/mL and an IL-6 secreted by FS-4 fibroblasts; 7.5 ng/ml rhTNF, 4 µg/ml antibody [1] of 2.16 ng/mL.
